From article PMC5959871, “Bacterial encapsulins as orthogonal compartments for mammalian cell engineering” (Nature Communications, 2018)

B1: Encapsulin cargo protein D, non-tagged, from the multi-gene construct BCDP2A (natural protein, Myxococcus xanthus, UniProt Q1D9P3 1-109, looked up)
chain: MAKNSNPSAFDRDFGYLMPFLDRVAAAASDLEDASARAELTRLMVEEKARWQRIQELLGGAGGRGAAAPTPAREAPAEAPRLARGSADELHEAAPFATGLTVGSLRGSR
notes: MxEncD, native cargo protein of Myxococcus xanthus encapsulin, expressed from a single reading frame with B and C separated by P2A peptides; P2A skipping probably leaves residues of the P2A peptide on the proteins; also called MxEncD; EncD
B2: Encapsulin cargo protein C, non-tagged, from the multi-gene construct BCDP2A (natural protein, Myxococcus xanthus, UniProt Q1D3Y8 1-130, looked up)
chain: MPQTNPFHSLVPRKMTDTELARSIRLNIEAELDAINLYAAHIDATDNEDAKAILQHVMDEEREHAALFWELIARLDPEQAAHAKEAVEKYRLITSGASHEAVEAVGKEGAAPSPADVTPEKRLTVGSLRR
notes: MxEncC, ferritin-like native cargo protein of Myxococcus xanthus encapsulin, expressed from a single reading frame with B and D separated by P2A peptides; P2A skipping probably leaves residues of the P2A peptide on the proteins; also called MxEncC; EncC
B3: Encapsulin cargo protein B, non-tagged, from the multi-gene construct BCDP2A (natural protein, Myxococcus xanthus, UniProt Q1D6H3 1-158, looked up)
chain: MAGPPDSDLDDVARIRLVLARELETINEYEAYARASSNPEVRAFFQHLAAEEKEHVSEAVHMLRMLDSGQNDHFAKPFVPGHFQAAEAPAPATVHVPTPDGPAFSVNGRNGRLPSEPPTSLPPQRLLYGLPAPPPAVESHPLTVGSLRRGGGGSGSGR
notes: MxEncB, ferritin-like native cargo protein of Myxococcus xanthus encapsulin, expressed from a single reading frame with C and D separated by P2A peptides; P2A skipping probably leaves residues of the P2A peptide on the proteins; also called MxEncB; EncB

biological target: T1, MxEncA^FLAG, encapsulin shell protein A from Myxococcus xanthus with C-terminal FLAG tag (Myxococcus xanthus, UniProt Q1D6H4 1-287); experiment: native gel or EMSA; Blue Native PAGE (NativePAGE 3-12% Bis-Tris) of material eluted from the anti-FLAG Co-IP or the Strep-Tactin purification; Coomassie or silver stain; conditions: both partners purified
T1 construct: MxEncA, encapsulin shell protein of Myxococcus xanthus, mammalian codon-optimized synthetic gene; A^FLAG printed as 32.9 kDa; Assembles into shells of 60 (T = 1) or 180 (T = 3) subunits; also called nanoshell; source: also purified by anti-FLAG beads and FLAG-peptide elution; not shown: FLAG, C-terminal, kept

Binding result, binds:
B1, B2, B3
